From publication PMC11162425

Target: Lcl C-terminal domain (Lcl-CTD, residues 252 to 401) (Legionella pneumophila strain 130b)
Test: SEC-MALS

“Lcl C-terminal domain (Lcl-CTD, residues 252 to 401) (domain or fragment)” gave a stoichiometry N of 3.
